doi:10.1101/2025.01.28.635311 (bioRxiv, 2025)

Legend:
[1] = biological target: bovine histone H1, labelled with NT-647-NHS dye (bovine) (UniProt P02253); test: MST
[2] = biological target: N-terminal cleavage product of SET (human, UniProt Q01105-2 17-175); test: SEC

bovine histone H1, labelled with NT-647-NHS dye (bovine), sequence (P02253 whole entry): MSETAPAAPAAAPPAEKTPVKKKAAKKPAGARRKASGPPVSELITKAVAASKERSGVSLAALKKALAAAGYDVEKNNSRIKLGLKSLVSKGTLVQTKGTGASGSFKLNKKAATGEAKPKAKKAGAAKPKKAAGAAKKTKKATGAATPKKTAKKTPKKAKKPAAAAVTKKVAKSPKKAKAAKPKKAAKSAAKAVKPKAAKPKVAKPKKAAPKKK

## full-length SET (SET-FL, 2–277) (from UniProt Q01105-2 2-277) (natural protein)
[1]
  Kd: 3000 nM

## SET-FL after cleavage by legumain (cleaved SET-FL) (from UniProt Q01105-2 17-175; Q01105-2 176-277) (complex)
[1]
  Kd: 3000 nM

B1: C-terminal cleavage product of SET-FL (domain or fragment, human, UniProt Q01105-2 176-277, looked up)
chain: KASRKRQHEEPESFFTWFTDHSDAGADELGEVIKDDIWPNPLQYYLVPDMDDEEGEGEEDDDDDEEEEGLEDIDEEGDEDEGEEDEDDDEGEEGEEDEGEDD
[2]
  binding result: binds

## KASRKRQHEEPESFFTWFTDHSDAGADELGEVIKDDIWPNPLQYYLVPDM (domain or fragment, human, UniProt Q01105-2 176-225, looked up) [C-terminal cleavage product of SETΔC]
[2]
  binding result: binds
